# The domain aggregation screens of Martell et al. (2025)
# Experiment: soluble fraction after stress (log2 fold change); higher = more stays soluble; pooled small domains, quantitative proteomics
# Conditions: stress: 75 degC
# 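Further: 20 min heating vs room temperature control held 20 min.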
row,Sequence,soluble fraction (log2)
1,HMNITFAENIKQFRKAKSMSMEELGKRLGKAKSSISAWENGKRTPKINELKSISEALGVTISQLLGF,-1.71
2,HMNIYIEFGRRLAFIRQNSKLSQSQIAQKLNIAQSTYAGYEKGVRKIPLEIIVQLSKILNISPTILILG,-3.84
3,HMNKADFLRKLDRELSVLDQEERKEILSFYEERFYTGTNYENKTELDIINELENPEIIAKNVLEEYGV,-0.253
4,HMNKDEFLRRLEDALSGEVPASVIRENLNYYADYLSQELGKGRTMDEIIEEIGEPNIVARTIINSAEAA,0.184
5,HMNKDWQDEVALQRYTMITPLLSEDLDNAKRIAMREKIAQDNLTTARSLYRYEKAYRENGFQGLRPTD,-0.252
6,HMNKEIEDYVATYSSMKAKEAAAIFDTMTSDLDLVAKILEAMSADDRAKILEQMNEENAARLTKMMD,0.0551
7,HMNKEQIASNIAEARKRSGLNQSELARRLGIRPQSVQQWEKGTATPKLDRLTAIAQVLGVSLESLTG,-0.0463
8,HMNKFADLAGNIIYNENGVEVFNFGKYKGQPVAEVFKKDIGYYGWIQNADFPRYTKKVFTAIQLKSK,-1.28
9,HMNKIDVVEVDMSKPYEDMTVTELQNVILGKLASNGPVTDQMKKDVAENIYHDSLVNWAKSF,0.883
10,HMNKIENLSQTILNILRKDHSQAFNYKQIAAKLQLDDPSSRNQIVKKLKDLQGKGTIQEIERGKYILTP,0.394
11,HMNKITIDQAKEIALNHAKLTAEQVSFIRTESEFDDGIEKYNIEFYYNNQKYDYDINAVNGQIIQYDLEG,0.159
12,HMNKITIEEAKSIALKHSNLDESQVSFIRSEYDFDNGIEKYEIEFYYNNNKYEYEINAKTGDIISYDYDI,-1.02
13,HMNKKAAYKDMAGYFAEMKSKDAADILSRLKDEDIIGIFNEMPRDMVAEMLQKMDRDKATTLTRKML,0.444
14,HMNKKEQYQNIISNFLEKMSEEDRLIFNMHFFKSINISQIARSIDREGYYVKTKIENLLADLKSLMIGNNL,-2.95
15,HMNKKETRLNNFIHFLKIRNSITVKEMANHLNVSEMTVRRDIKELTADHTINFENGKIMFNPQSSL,-1.82
16,HMNKLIIDAAEDKIFFMIMNNDISYNISHENTKINFEKLIILINDFLSSKKLKINDITGLYV,0.123
17,HMNKNIKIPNISNLSREDAESVLKESGISVSTEIKEVESDTIEKGKVVKTEPSIGSTVKQGRTITIYISSG,0.161
18,HMNKRYKVQVTTDNLKIRKGAGTSYPVVGHITDKGTYTIVETSGKWGKLLSGAGWIYLSYTKK,-2.13
19,HMNKTEIISILEKIVLPTQIRNINIFGSEVIIDLNIDNPSLHAKKKLEKSIINSFDKNHKIIINFNVE,-0.238
20,HMNKTLTEQIYDELKSAIIELELKPGEFVTEEYLAEQLGVSRTPLKSAISKLIFEGLMAYEVGKGTYIS,-1.11
21,HMNKVQTFIIEKHIKEVFEHTNRTYYRSGQYYFQTRDEFSMALKRFLKDREPNKKNWIDSIINRA,-0.945
22,HMNKYQFESKIHIYRATKRMTQQELADLVGVSRQTIMQLERNRYNPSMMLAYGIAKVFDVTIEDLFDFSEV,-3.18
23,HMNKYYQQLLQADPTGFIDPFKDLGTYDSRLNTFKEPVSELLNPFSGRPYSKIWQKRIETMREIFISYIKS,-2.8
24,HMNLDVEQIKKEALNQLIEIGNENDGIVTIKDFKKIDDISSLDEDDIEDIRNLLIENNIEIFE,0.0781
25,HMNLEQTIVLGKRLFNNALDTLGKKQRSIKNKQINKLLELLNFKNMNELYQSIGVGDKNPLLMAQMML,-0.775
26,HMNLESNQYVIDISDSQVINKDEFETILNQNKTKDIVIKSNNNVTFTFEKGSMIGAEGKDNYDFSSQVNY,-0.0852

row,Sequence,soluble fraction (log2)
1,HMNLFNEIEKQYQALQDRSSASLVDLRHLLLDIEELVNSPDYQALAPDQRSTLQAARKELMRRIQKQEN,0.819
2,HMNLGDSLFHARRKQGLSQEAVAEQLGVSRQTVSKWEANETLPDIRQSKLMAKLYHTSLDELI,0.0881
3,HMNLLDYTTLYVTSDGKSVSFGIAGKEIPVSYIAQEAPGTVVIDDTIRIPRKYDMEYILKRFNES,-1.2
4,HMNLLGDNIRKLRLEKGLGLNEVARLANITGGYLSSIENNKRTNVGTEILESIAKAIGVSVSDFYL,-0.347
5,HMNLLGERIREIRMEMGLTAKELAQRASVTPGYISQIEHDQIKPSMNVMMRIAEVLNVPMAALLM,-2.38
6,HMNLLPAGTYKLKDLVTAEDEEIGAKKGDVVIAHEDTPPSDRVLGVDIFPVIHKNTSKKIYVSLEDI,0.322
7,HMNLMQIHVARPPNQLGVFSQEEVAAGLQSGRFLPTDQAWRDGMSAWTPLSQWAEFSSVVAAV,-0.217
8,HMNLNLDITTYKLEELENLLKLKPNYKQEQIFEAKTKMEKFILKSNLNESKREELYIFLDNIYNKLTNNLL,-2.94
9,HMNLPISDREKELLTLLSKGLLYKEIASKLDITIGTVKQHIHNIYHKLHVSNKTEALNLFNK,-1
10,HMNLRLKEVLDEKNMSLVTLSEKTGIEKGNLSAISNNKKNPTVETLSKIAKALQISLAELFESPP,0.416
11,HMNLSDIETWLRELSLEKYALAFSEAEIDFETLPELTEDDLKEVGLPVGPRRKVWGAIQLLRTTD,-1.48
12,HMNLSNVVIRKVQEMILSGELQEGDKLPPEREMTQRLGIGRPALREGLKSLEMLGLVERRHGLGNFIINKV,-1.05
13,HMNLSPADFSSVRNALGLSLSTVAKESGINRNYLSNFEKKKHFLEETAKVKLRDYYMSIDPDAFAAAL,-0.408
14,HMNLVGGKINSLMTTKNVTIQDLSERSGLTVSQIELLLSGDKVPSLAVLIKIARGLGVRVGTFL,-1.12
15,HMNLVRQHTDYAFRLLVALSQAPGKPISTRTLASAADVPYQFASKIMQKLHEEGLVESVMGPFGGFRLVQ,-3.15
16,HMNLWIDNTQVINDWTEGASERSGSIYLTAGVKPIKMQYFDSVLNAKAILRWQGPGINKSVVPSSALTPG,-1.14
17,HMNMEDIADKIGRLYDNLPDDLKLMIKYRDIDDMTYDEIARKANLPIGTVRSRLHRARDILLREI,-1.07
18,HMNMFGIQRRNHLLSLLQEKKSITVQEAAVIFEVAEETIRRDFRTMEGQGLIVRTHGGALLADD,-4.21
19,HMNMMIIHVNGEKYSFQEPITISELILKLELDSRKIAIEYNLEILPRSLFEITSIKNGDKIEIVHFI,-3.43
20,HMNMPYGTVKWFNDAKGFGFIAPEDGSADVFVHFSAINSKGFRSLQEGQRVSYEVTTGPKGAQAAGVTPVT,-0.234
21,HMNMYTVTGRLVDQDGVPQANALVTIDSSSQQTRTSPQGFYLIKVFGTEPSTIKFLVDGYDPQIVNFTP,-0.466
22,HMNNDIDRVFAELTVLSQKKGYLVFDDIEKGTEDLSVNEVDWLTNRLLTSGVEIFDDVPDTIK,0.347
23,HMNNDSQYLATLQRYYAEHRVLPSYARMLPLLGFASKAAVKKVLERLEVVGMLERTEDGDWAPSERFFER,-2.24
24,HMNNGYSINEIAKLMKMTLKVVRRYVASGELKTTKTNNTYSISEEAFNEFKKYIEEGGDAKHAQEVADTFK,-1.09
25,HMNNIGENIKKYRTKQGLSQEDFAKKSGVKYTTLTKIESGVIKKPSVLVMAKIAKALGVNIEELI,-1.64
26,HMNNIINEAQIKQWVEEFYLSVSPRPTRATMIALVHKKIKEETKDGEEGQTVSETLINNFYTALEKEHKRK,0.216

row,Sequence,soluble fraction (log2)
1,HMNNIPFIITDERLNVIQSHLVPREVLDHPDRLRRQIDRFTEENQPKTVNYWWGPEHRHIIFYGKSK,0.377
2,HMNNIYFSPVVEENNKGLRLDKFLAASFPEFSRSQLQRLILEGNVSNDDVVIADNSQKVRVGDSFQVIVPE,-0.018
3,HMNNKSDLLFNHLRQRIATMENGTIFPSVRQLMTEYNVSQSTVSTAIRSLKELGLLEALSRQGMVVRKE,-1.15
4,HMNNLGSKIKELRIAENLTQEKLAEELNVSFQSISRWENGISTPDISLIPAIARFFGVSTDYLFGLQD,-1.82
5,HMNNLPDFIKQLRKENNLTQEYVASEIGVSRPTYEQIEKGKRELTISEAEKLAKIFNIPLENFLQGKKGV,0.122
6,HMNNPLPDLLKYFRKKKHLTQEQVAKQLSVSRASYASYETGRIIPGMQHIMELSRILEHDFLFAYTLAVQ,-2.41
7,HMNNPNFAIQKYVTGSDIKRVRKTLRLTQKKFAELVGVSKATMERWETKEDKITGPVVLLLKILEDHPEY,-1.55
8,HMNNQKATAVKVASGIVNLRSGPATSYETLDTVATGETLSVLAEKDGWFQVSRAGRTGWVAGWVVDVIRE,-0.499
9,HMNNSSIGERLKYQRKIKGYSQEELADRTNVTVRTIQRIEKEEVSPHLNTIKLLAIALDIEVDELVAL,-2.68
10,HMNNSVAYSTFLNDIRTNTLKDVDMTSNSETINVTKKDGTKYQTVMPMYDRDLLADLSKTDATVTGQP,0.562
11,HMNNTIKFSVDIKNSGKRLDIFLSENVTQYTRSYLKRLIENSHVKLNNKILNSPSTKVKFQDQIIINNIE,-2.88
12,HMNNTIKFSVDTTNSGKRLDIFLAENIKQFTRSYLKKIISNNQVKLNNLVANSPSIKVKHSDLILINILE,-2.75
13,HMNNTVLSSVKSINMFLDANGGDAGQAFRIYNNTNPDSNPTESTYIFKVAEDGNTFVKGYLNLNGTTL,-0.267
14,HMNNVRIEHIDTIGTVRLHKKRGVKRVSLRIHQSGEIRVTQPLYLPFSAGVLFAKSHTEWIMKQKQK,0.0763
15,HMNNWRRSLEREVTASLARGDRDIFDGLNRSFEAALITKALEHTGGRRIEAATLLGIGRNTLTRKIQDLGL,-2.11
16,HMNNYEGIVKSVSNSNVYIQVAGRTIGYTISPHTIIMVNGKNVPASELMPGQHVSYTNKGSKLSYININS,-1.17
17,HMNNYFPAYKGSATSIAPALKQMGVNNSYAYRSKIAAVNNITGYRGTPAQNTQMLNLLKQGRLIK,0.349
18,HMNNYNDSVQKIINYIADNLNENLSVRKLADKMPMSVSHFNRVFQKYTGDSPYAYVMAMRIKKAKYL,-0.157
19,HMNPAIYIRKNILNLTQEKLSEYLDVTQPTIHRWEESGVIPAKHQRQIREFASEKGIYWNDSWFFSIPDE,-1.53
20,HMNPDMIAGVLKVPAAAGRLRSALFELGVVDDESYDDDGASRLTVTASQSDLERIVAQAGLVFEDVLVERR,-0.142
21,HMNPEAFIQTLKQILSTYEKNDPIYLQEIKADLVKKFRIEIPINALETYLKENGYSNIYLKR,-0.168
22,HMNPEDLSGVRKAAILLLTMDDEVTKDVMKGLDEEEIEAIGKEITNLKLIPDHVVHRVQEEFMTKVSK,0.107
23,HMNPESRRSELIDAATKLFFSRGYTATSIRDILDAVDDRTASPSVFYYYFESKEAIYQAVLQRYTD,-2
24,HMNPETPAQQAVRKRLIVSVQFYRRLKDTPLKAVWQVAARDTLVNGYNLFLKRNIHAFNDRTLSTPSALS,-0.0445
